Measured values from the DeepSol protein solubility set.

Assay: soluble on expression in E. coli; label from the status in PepcDB or PDB records

Soluble on expression in E. coli, not soluble:
MNFESTRRRLTEKQADTVDRLTRAAVEVLREEGFAGLTVRSVAGIAGVAPATAYTYFSSKEHLVAEVFWRRLAGSPQPADDGLDRTGRVVAVLRHIALLVADEPELAGAVTNALLGRDPDVEHLRARIGLEIRDRLATALGEGHDPDVLEALELLYAGGLVRAGMGYGSYAQFADRLETSAKLILE
MYFSWLFLVFFSSRSLTGTPRSIDQRQLRAELSGTGTPTAPADSPALVPNCTQTRGGEDGEGCKQPRVDIKKFRKKKGAHKPQEPETLNFKFRQNLLSLKFLKERKELLVSII
MLTLLNRWRSQPGGASNAAAFIRVLESPKSAVTDKVLVLKAFNDWDVLVNTWFEVADALPAVEQLLDNNTFPEHSSAALLVSKVYFCLEQYERALEFALRGDFNVVPATRTGLGNDAEYVNKIIETAIDTYKTLSKQGSGIPQKLRDLIDRIVARNLDKREIWFVISLGFETTNLAMIDRAISAMPADLTIKNQTTLVETLNRVVNGAFDRSFRFQVIDTVIKTYLKCPSPDMSKICECYVLTDNAEAAADTITSLIAKSLSTRAYQIAFDLYETASQGFLDRVLKRFQQQDARDEKSMEKIHSILKGHETVKAYLDFFVRHNHTDSVLMEEIKENIRTASAHNALLISNGLMQYGTTCDDFLRNNLNWVSKATNWNKFNAVASLGLIHHGQESSAMKVLEPYLPKESVEGFGFKEGGAMLAYGLIHAKHGDATAMSTLAQWLKTAENEPVRHGACLGFGVAGLGSSSVSNYEKVREVLQRDEAVSGESAGIAMGLIMAGHLNQEVFNELKQYTVDTQHDKTQRGIRTGLACAAFGLQGDAEPYIKEAIGAKSNPMLRSTGICMLSMAYAGTGSPDVVRRLLEKVATDPNLDVKRYATIGIGFVLSKDPSTCLSYVAMLTEHFNGHVRYGAAMALGIACAGTGNMEAIALIEPMISDKEGFVRKGALLSLALIMCQQTDYTCPKVNGFRKQLLKKIGEKNEDSLVKFGAIIAQGLLDIGGQNAAVTMQNSDKQPDMGSMVGMMCFLHGWFWHSMHFFIALAAKPSCLVMMNENLKIPVLDYICHANSQKFAYPPRAESKKDKDVKKIETVVLSITGKKNASKKLIAEEKKRREAAASASSAAAAPSSSSTSGTAPAAEDEKMEVDQPGKSKKEKAPEKDTKPLHRLQNPARVIPAQRQLISISDARAYSPMKPLYKGGIIVADRVDKEREEKLVSEVVTQVNTPASSGNTENKPHSTFEININDF
MKYVEVIMSIKDEGEFFMKVLQKNEFLQKSNETLASILDMLEKLPVVKFDEIEADKAVLVIIDMTNGFAKEGALKSDAVKELIPRICELSEICDRRKIRKIAFADCHTDESPEFDAYPKHCMKGTAESEIVDEIKNIGGYTLIEKNSTNGFLEEAFRKWLLENPDINTFILTGDCTDICVQQFAITLKAYFNMNNKRARVIVPLNAVDTYDLGVHDRNLMNVMAAYNMIINGVEVVRDIVE
MSFSENRRIALVTLVVDNYDRAKAFYCDVLGFECLSDKPLDDGKRWVVVKPQGAEGGALLLAEADGEQQRLAIGNQTGGRVGFFLHTDDFARDYETMIARGVHFLEEPRHEVYGSVAVFADPYGNRWDLLQPRG
IHVNSKEEAIISLVDVVSKEGYLIDKNQFLKDVLKREETLSTYIGHGIGLPHSQSVGVKNSCITIGKLDTPIEWTEEGEKVDLIFLISVTKDNENNLHLKILSKLARLLMHESFRNQIRCSDEQTVYNLIKEKIEE
MSLKPAPRWPLHPAPREGEALSSWLNRVALCYHMEVSELLEHDLGHAQVDDLDTAPPLALLAMLSQRSGIEPDRLRCMSFAGWVPWLLDSLDDQIPDALETYAFQLSVLLPKLRRRTRSITSWRAWLPSQPIHRACPLCLNDPANQAVLLAWKLPLMLSCPLHGCWLESYWGVPGCQRRSNTDPWRRGEGHHHHHH
MGSDKIHHHHHHMGIRVSTISRCIGHLEDEIGVALFLRRPNGVTLTFAGEQFLVRARRAMTEVRHAICEAGIAGTGRNGFVRLGLLSSLAAPFPAMLIKIYCAAYPGVRILYSEGGAADHRAALQHHRLDLAFLPHPEKAEGCDALGLWEERLFAAMAQDDPLTRHDVVTWDDLRERHFIFSEVPPGPELLDYLTERLVGFGFLLKADLLTVYRDTVMRVIANGSDVTVIGEARVSHPIQGVACRPITGESLFFHAVWLPTNDNPAFRRFLSLAKVLSKQCSVCELKEGLAGPSGEDHSVMDETSASLERKSRLLKIVSERCATCLLKKAIAD
MGSDKIHHHHHHAAEGRKDFNLYTLVPGSATVVLETDDLAGMIQGINELSCSKDRHFLYVSKLFSYLKLHLYTLLEDTPHGLSKQMNKVLLSFHEPDNDRNQVLYCSLGNGDYELVEKFIRKYCSSSFPSKLFDYKGEEIRIYPMPDDSFLACYFTSDFLVVSYQKKLIEQVIDARLSKKSLLTDASFAKVHEDKRARVAATIYARMQPLSMGKATDGIRSCTQLGGWTEFDMKMNGDAIYFSGVSHDTDTCLTFMNVLRQQQPVEDFPGDILPASTFFFNKRSVTDMQAMLDFTARQEYTTSTYSDYIRDRDGELLAYLKENAGGEIVTCLFHSTDTLSNPCAVMSIPLRDGQQAERVLQGMLRTAPKEVDGPPKPRTTFCKTPLRAYTLYVLPRNTLFTQLTGITESALYIYACFYEGRLVLAPDVESLTAYLRHLDKKEILDDTPGYEEAVVNLSPSYNFMMVADLGETFSQPENYVRLIPAFFFRNQEFFRHFILSAQFTCTDGIVYPNVVLIYKGESDDVS
MSLTKAYTIVIKLGSSSLVDESTKEPKLSIMTLIVETVTNLKRMGHKVIIVSSGGIAVGLDALNIPHKPKQLSEVQAIAAVGQGRLIARWNMLFSQYGEQTAQILLTRNDILRWNQYNNARNTINELLAMGVIPIVNENDTLSISEIEFGDNDTLSAITAALVGADFLFLLTDVDCLYTDNPRTNPDARPIVLVPELSEGLPGVNTSSGSGSEVGTGGMRTKLIAADLASNAGIETIVMKSDRPEYVPKIVDYIQHHFRPPRHIGNGTQQQFLDLQDTELEQLRRYDVPMHTKFLANDNKHKLKNREFWILHGLITKGAIIIDENSYDKLLSKDMASLTPNAVIEVRDNFHELECVDLKIGQRLPNGELDISKPIQSVGCVRSNYTSLELAKIKGLPSEKIHDVLGYSVSEYVAHRENIAFPPQFEGHHHHHH
MGSDKIHHHHHHQRDLWNIFKLWGWTMLCCDFLAHHGTDCWTYHYSEKPMNWQRARRFCRDNYTDLVAIQNKAEIEYLEKTLPFSRSYYWIGIRKIGGIWTWVGTNKSLTEEAENWGDGEPNNKKNKEDCVEIYIKRNKDAGKWNDDACHKLKAALCYTASCQPWSCSGHGECVEIINNYTCNCDVGYYGPQCQFVIQCEPLEAPELGTMDCTHPLGNFSFSSQCAFSCSEGTNLTGIEETTCGPFGNWSSPEPTCQVIQCEPLSAPDLGIMNCSHPLASFSFTSACTFICSEGTELIGKKKTICESSGIWSNPSPICQKLDKSFSMIKEGDYN

Soluble on expression in E. coli, soluble:
MDKIEVRGARTHNLKNINLVIPRDKLIVVTGLSGSGKSSLAFDTLYAEGQRRYVESLSAYARQFLSLMEKPDVDHIEGLSPAISIEQKSTSHNPRSTVGTITEIHDYLRLLFARVGEPRCPDHDVPLAAQTVSQMVDNVLSQPEGKRLMLLAPIIKERKGEHTKTLENLASQGYIRARIDGEVCDLSDPPKLELQKKHTIEVVVDRFKVRDDLTQRLAESFETALELSGGTAVVADMDDPKAEELLFSANFACPICGYSMRELEPRLFSFNNPAGACPTCDGLGVQQYFDPDRVIQNPELSLAGGAIRGWDRRNFYYFQMLKSLADHYKFDVEAPWGSLSANVHKVVLYGSGKENIEFKYMNDRGDTSIRRHPFEGVLHNMERRYKETESSAVREELAKFISNRPCASCEGTRLRREARHVYVENTPLPAISDMSIGHAMEFFNNLKLAGQRAKIAEKILKEIGDRLKFLVNVGLNYLTLSRSAETLSGGEAQRIRLASQIGAGLVGVMYVLDEPSIGLHQRDNERLLGTLIHLRDLGNTVIVVEHDEDAIRAADHVIDIGPGAGVHGGEVVAEGPLEAIMAVPESLTGQYMSGKRKIEVPKKRVPANPEKVLKLTGARGNNLKDVTLTLPVGLFTCITGVSGSGKSTLINDTLFPIAQRQLNGATIAEPAPYRDIQGLEHFDKVIDIDQSPIGRTPRSNPATYTGVFTPVRELFAGVPESRARGYTPGRFSFNVRGGRCEACQGDGVIKVEMHFLPDIYVPCDQCKGKRYNRETLEIKYKGKTIHEVLDMTIEEAREFFDAVPALARKLQTLMDVGLTYIRLGQSATTLSGGEAQRVKLARELSKRGTGQTLYILDEPTTGLHFADIQQLLDVLHKLRDQGNTIVVIEHNLDVIKTADWIVDLGPEGGSGGGEILVSGTPETVAECEASHTARFLKPML
ANNRAEVDTLSPAQAAELKPMPQSWRGVLPCADCEGIETSLFLEKDGTWVMNERYLGAREEPSSFASYGTWARTADKLVLTDSKGEKSYYRAKGDALEMLDREGNPIESQFNYTLEAAQSSLPMTPMTLRGMYFYMADAATFTDCATGKRFMVANNAELERSYLAARGHSEKPVLLSVEGHFTLEGNPDTGAPTKVLAPDTAGKFYPNQDCSSLGQMASMTGGQQMGHHHHHH
SLKCYTCKEPMTSASCRTITRCKPEDTACMTTLVTVEAEYPFNQSPVVTRSCSSSCVATDPDSIGAAHLIFCCFRDLCNSEL
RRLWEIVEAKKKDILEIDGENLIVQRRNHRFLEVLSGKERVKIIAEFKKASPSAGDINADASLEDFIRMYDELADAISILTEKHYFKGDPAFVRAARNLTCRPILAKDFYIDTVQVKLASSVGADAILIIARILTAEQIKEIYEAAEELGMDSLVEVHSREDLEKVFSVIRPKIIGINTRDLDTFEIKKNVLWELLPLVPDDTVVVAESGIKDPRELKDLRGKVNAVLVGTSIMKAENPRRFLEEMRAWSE
SLRFVDEYRAPEQVMQLIEHLRERASHLSYTAERPLRIMEVCGGHTHAIFKFGLDQLLPENVEFIHGPGCPVCVLPMGRIDTCVEIASHPEVIFCTFGDAMRVPGKQGSLLQAKARGADVRIVYSPMDALKLAQENPTRKVVFFGLGFETTMPTTAITLQQAKARDVQNFYFFCQHITLIPTLRSLLEQPDNGIDAFLAPGHVSMVIGTDAYNFIASDFHRPLVVAGFEPLDLLQGVVMLVQQKIAAHSKVENQYRRVVPDAGNLLAQQAIADVFCVNGDSEWRGLGVIESSGVHLTPDYQRFDAEAHFRPAPQQVCDDPRARCGEVLTGKCKPHQCPLFGNTCNPQTAFGALMVSSEGACAAWYQYRQQESEA
SLPVSYIENQSAVINQGDFLTQLSNIKNYSSKLSTNFYDNYEKITNWVLSGANINELTQFNIQPQIMRGFDGFQNVLMTGYYSPILYARHSPQGQFKNPIYRMPVKKRLSRAQIYAGALAGKRLELAYSDSMLENFLLGVQGSGYVDFGDGNLNYFAYAGQNGYPYTAIGRLLVEDGEIPKEKMSIQAIREWGNRNPSRIQSLLERNEAYVFFKNDPSGKVKGSAGVPLVAMASVASDRNIIPSGSVLLVEVPDIDNNGNWLGTHKLHLMVALDVGGAVKGHHFDLYRGIGARAGHIAGLSKHYGRVWVLR
SSKKYKLSEIHHLHPEYVRVSEHFKASMKNFKIEKIKKIENSELLDKFTWKKSQMKEEGKLLFYATSRAYVESICSNNFDSFLHETHENKYGKGIYFAKDAIYSHKNCPYDAKNVVMFVAQVLVGKFIEGNITYTSPPPQFDSCVDTRSNPSVFVIFQKDQVYPQYVIEYTED
